The values below come from publication PMC2936295, “Integrative inference of gene-regulatory networks in Escherichia coli using information theoretic concepts and sequence analysis”.

For series [1], the target named is T1, PdhR-His (Escherichia coli K-12 LJ110, UniProt P0ACL9 1-254). Put plainly: EMSA; no pyruvate; 9-37 pmol PdhR; EMSA, binding buffer and conditions as in ref 17 (not given) plus 0.1 mg/ml herring sperm DNA; 0.1 pmol probe (0.025 pmol for lipA); 6% polyacrylamide gel; pH. As to conditions: protein: recombinant; tags: C-terminal Penta-His; chain copies: 2; label: 5' DY682 (strand 1); 5' DY782 (strand 2); blunt.
T1 sequence (P0ACL9 whole entry): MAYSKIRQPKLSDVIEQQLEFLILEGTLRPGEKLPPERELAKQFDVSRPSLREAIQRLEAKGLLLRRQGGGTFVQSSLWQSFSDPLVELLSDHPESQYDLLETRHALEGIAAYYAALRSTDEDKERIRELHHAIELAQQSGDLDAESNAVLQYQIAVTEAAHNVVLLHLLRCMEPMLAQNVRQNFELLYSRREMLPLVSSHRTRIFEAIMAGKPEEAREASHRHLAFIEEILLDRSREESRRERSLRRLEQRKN

Series [2] addresses T1, PdhR-His. Briefly: EMSA; no pyruvate; 18-46 pmol PdhR; EMSA, binding buffer and conditions as in ref 17 (not given) plus 0.1 mg/ml herring sperm DNA; 0.1 pmol probe (0.025 pmol for lipA); 6% polyacrylamide gel; pH. As to conditions: protein: recombinant; tags: C-terminal Penta-His; chain copies: 2; label: 5' DY782 (strand 1); 5' DY682 (strand 2); as printed, strand 2 has 3 extra nt (CAG opposite a gap in strand 1), possible misprint; blunt ends.

B1: PdhR-binding site of pdhR-aceEF-lpd operon (dsDNA)
DNA 1: GCCGAAGTCAATTGGTCTTACCAATTTCATGTCTGTG
DNA 2: CACAGACATGAAATTGGTAAGACCAATTGACTTCGGC
As for B1, the binding result with PdhR-His [1] is reported as “binds”.

B2: Mlc-binding site (ptsG) (dsDNA)
DNA 1: TTGGCAAATTATTTTACTCTGTGTAATAAATAAAGGGCG
DNA 2: CGCCCTTTATTTATTACACAGAGTAAAATAATTCAGTGCCAA
For B2, in the series with PdhR-His [2], the binding result is listed as “no binding”.
